This note sets out measurements from patent publication US20250144178A1, “PHARMACEUTICAL COMPOSITION FOR CANCER TREATMENT COMPRISING FUSION PROTEIN INCLUDING IL-12 AND ANTI-FAP ANTIBODY AND ANTICANCER AGENT” (KANAPH THERAPEUTICS INC., priority 2022, published 2025).

In one assay the test system is 4T1 tumor. The experiment in a line: Tumor re-challenge in mice with complete response, 4T1 tumor. Type of assay: in vivo, BALB/c mice. The settings on record: mice with complete response after T1.01m, left flank, FIG. 27. The procedure: In order to evaluate whether tumor recurrence may be inhibited by inducing long-term immune response after fusion protein treatment, tumor re-challenge was performed in subjects in which complete response was achieved by administration of T1.01m in a tumor model transplanted with CT26 cells overexpressing FAP. BALB/c mice without a treatment history were used as control mice.
4T1 cells were subcutaneously injected into the left flank and CT26 cells were subcutaneously injected into the right flank of control mice and mice in which complete response was achieved by administration of T1.01m, to obtain a tumor recurrence model.
CT26 cells and 4T1 cells were suspended in Hanks' Balanced salt solution (HBSS, Gibco) at a concentration of 1×10^6 cells/100 μl, respectively, and CT26 cells were transplanted into the subcutaneous region of the right flank of the mice using a 1 cc syringe (25G). Tumor formation and growth were evaluated by subcutaneous transplantation of 4T1 cells into the left flank of the same mice. Nine animals were used for the control group, and seven animals were used for the test group.

Another assay concerns the target T1, recombinant mouse FAP (Mus musculus, UniProt P97321).
T1 sequence (P97321 1-761): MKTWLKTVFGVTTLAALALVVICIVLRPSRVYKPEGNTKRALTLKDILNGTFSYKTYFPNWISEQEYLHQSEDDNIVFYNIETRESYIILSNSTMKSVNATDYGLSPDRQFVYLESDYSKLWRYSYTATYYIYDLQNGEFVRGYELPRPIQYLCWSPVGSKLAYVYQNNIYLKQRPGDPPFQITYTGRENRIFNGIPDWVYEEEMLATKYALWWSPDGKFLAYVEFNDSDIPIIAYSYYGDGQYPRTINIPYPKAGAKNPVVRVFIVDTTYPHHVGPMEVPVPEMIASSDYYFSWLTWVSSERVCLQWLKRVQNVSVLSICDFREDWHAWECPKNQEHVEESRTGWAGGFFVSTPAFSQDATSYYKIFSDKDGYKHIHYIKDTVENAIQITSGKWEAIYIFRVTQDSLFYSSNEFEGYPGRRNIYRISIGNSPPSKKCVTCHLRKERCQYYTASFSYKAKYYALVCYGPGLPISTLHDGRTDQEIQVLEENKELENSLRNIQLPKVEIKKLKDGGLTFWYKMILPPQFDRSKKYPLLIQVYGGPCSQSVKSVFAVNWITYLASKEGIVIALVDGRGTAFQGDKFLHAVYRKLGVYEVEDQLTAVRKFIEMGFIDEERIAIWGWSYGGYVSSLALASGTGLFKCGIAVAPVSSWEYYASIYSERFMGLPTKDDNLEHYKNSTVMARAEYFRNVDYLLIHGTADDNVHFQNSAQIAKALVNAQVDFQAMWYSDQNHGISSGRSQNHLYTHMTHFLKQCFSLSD
The experiment in a line: Surface plasmon resonance binding to recombinant mouse FAP. The conditions noted are these: SPR, 2 μg/ml protein, FIGS. 13 and 14. The procedure: The surface of the CM5 chip was activated with a 1:1 mixture of […] (N-hydroxysuccinimide) and […] (1-Ethyl-3-(3-dimethylaminopropyl) carbodiimide), and 25 μg/ml of anti-mouse IgG (Fc) antibody was immobilized for 400 seconds at a rate of 10 μl/min. The remaining active ester groups were blocked with 1 M ethanolamine. T1.01m, T1.02m and T1.03m were diluted to 2 μg/ml and reacted on the CM5 chip immobilized with the anti-mouse IgG (Fc) antibody. The recombinant mouse FAP was diluted to 200 nM in 1×HBS-EP+buffer solution and diluted by serial dilution. The diluted recombinant mouse FAP was reacted at a rate of 30 μl/min. The association and dissociation times were 180 seconds and 400 seconds, respectively. After the dissociation, stabilization was performed for 60 seconds, and then a regeneration was performed for 30 seconds with a 10 mM glycine pH 1.5 solution at a rate of 30 μl/min.

B1: T1.01m: K&H bispecific: anti-mu FAP/mu IL-12, mu IgG2a DANG (seq18, seq19, seq20) (antibody)
heavy: QVQLQQSGAELARPGASVNLSCKASGYTFTNNGINWLKQRTGQGLEWIGEIYPRSTNTLYNEKFKGKATLTADRSSNTAYMELRSLTSEDSAVYFCARTLTAPFAFWGQGTLVTVSAAKTTAPSVYPLAPVCGDTTGSSVTLGCLVKGYFPEPVTLTWNSGSLSSGVHTFPAVLQSDLYTLSSSVTVTSSTWPSQSITCNVAHPASSTKVDKKIEPRGPTIKPCPPCKCPAPNLLGGPSVFIFPPKIKDVLMISLSPIVTCVVVAVSEDDPDVQISWFVNNVEVHTAQTQTHREDYGSTLRVVSALPIQHQDWMSGKEFKCKVNNKDLPAPIERTISKPKGSVRAPQVYVLPPPEEEMTKKQVTLWCMVTDFMPEDIYVEWTNNGKTELNYKNTEPVLDSDGSYFMYSKLRVEKKNWVERNSYSCSVVHEGLHNHHTTKSFSRTPGK
light: QIVLTQSPAIMSASPGEKVTMTCSASSGVNFMHWYQQKSGTSPKRWIFDTSKLASGVPARFSGSGSGTSYSLTISSMEAEDAATYYCQQWSFNPPTFGGGTKLEIKRADAAPTVSIFPPSSEQLTSGGASVVCFLNNFYPKDINVKWKIDGSERQNGVLNSWTDQDSKDSTYSMSSTLTLTKDEYERHNSYTCEATHKTSTSPIVKSFNRNEC
chain: MWELEKDVYVVEVDWTPDAPGETVNLTCDTPEEDDITWTSDQRHGVIGSGKTLTITVKEFLDAGQYTCHKGGETLSHSHLLLHKKENGIWSTEILKNFKNKTFLKCEAPNYSGRFTCSWLVQRNMDLKFNIKSSSSSPDSRAVTCGMASLSAEKVTLDQRDYEKYSVSCQEDVTCPTAEETLPIELALEARQQNKYENYSTSFFIRDIIKPDPPKNLQMKPLKNSQVEVSWEYPDSWSTPHSYFSLKFFVRIQRKKEKMKETEEGCNQKGAFLVEKTSTEVQCKGGNVCVQAQDRYYNSSCSKWACVPCRVRSGGGGSGGGGSGGGGSRVIPVSGPARCLSQSRNLLKTTDDMVKTAREKLKHYSCTAEDIDHEDITRDQTSTLKTCLPLELHKNESCLATRETSSTTRGSCLPPQKTSLMMTLCLGSIYEDLKMYQTEFQAINAALQNHNHQQIILDKGMLVAIDELMQSLNHNGETLRQKPPVGEADPYRVKMKLCILLHAFSTRVVTINRVMGYLSSAGGGGSGGGGSEPRGPTIKPCPPCKCPAPNLLGGPSVFIFPPKIKDVLMISLSPIVTCVVVAVSEDDPDVQISWFVNNVEVHTAQTQTHREDYGSTLRVVSALPIQHQDWMSGKEFKCKVNNKDLPAPIERTISKPKGSVRAPQVYVLPPPEEEMTKKQVTLSCAVTDFMPEDIYVEWTNNGKTELNYKNTEPVLDSDGSYFMVSKLRVEKKNWVERNSYSCSVVHEGLHNHHTTKSFSRTPGK
Turning to B1, the “growth of re-challenged 4T1 tumor” value in the assay with 4T1 tumor is on record as “the 4T1 tumor grew”. Besides, the “Binding to recombinant mouse FAP” value with recombinant mouse FAP was “may bind to recombinant mouse FAP to specifically target FAP”.
